Test results from the supplement of paper PMC9170038.

System: MS2 coat protein
Assay: apparent KD of MS2 coat protein; designed switch direction (-1 OFF switch, 1 ON switch): 1; higher = weaker reporter binding
Procedure, shortened: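 Normalised cluster fluorescence was curve-fitted, and each design's median over clusters is its apparent KD. Before this, SNAP-549-labelled MS2 coat protein was titrated from 0.7 or 1.5 nM, doubling to 3 µM, over RNA switches transcribed on Illumina chips by stalled E. coli RNA polymerase. Titrations had no input, 200 uM small-molecule ligand, or an oligonucleotide input, and steps lasted 0.8–1.5 h (lowest) to 10–20 min (highest).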

[1] = input ligand: microRNA oligo, concentration not stated
[2] = Eterna round: R95, input ligand: FMN 200 uM
[3] = Eterna round: R95, input ligand: microRNA oligo, concentration not stated
[4] = Eterna round: R95, input ligand: none

Sequence	apparent KD of MS2 coat protein [1] [nM]	apparent KD of MS2 coat protein [2] [nM]	apparent KD of MS2 coat protein [3] [nM]	apparent KD of MS2 coat protein [4] [nM]	apparent KD of MS2 coat protein (input ligand: FMN 200 uM) [nM]	apparent KD of MS2 coat protein (input ligand: none) [nM]
GUGGUCAGACAUGAGGAUCACCCAUGUGGAAUAAAUAAGGGACAGGAUAUUCAAUAUAGGAUAUAGAAGAAGGGUUGGUUGGUG (Eterna round: R96, puzzle: Same State NG 3)	104	–	–	–	–	–
GUGGUGUAGAUACAGGAUAUGUUGCUCGUAACAUGAGGAUCACCCAUGUAUCUAUGAGAAUAAAUGCAGAAGGGUGCACACCACG [Mat - Same State 2 - Mod of UCT - D73] (puzzle: Same State 2)	–	19.1	352	311	–	–
GUGGUGUAGAUACAGGAUAUGUUGCUCGUAACAUGAGGAUCACCCAUGUAUCUAUGAGAUUAAAUGCAGAAGGGUGCACACCACU [salish99_ss2_r3_086] (puzzle: Same State 2)	–	15.7	148	325	–	–
GUUAAACAUGAGGAUCACCCAUGUCAAUGUAGUCGAGGAUAUGGGCAGCUAUGAGGCGUACUAGAAGGCGAAGAGU [Mat - Same State 1 - Mod of JL - D12] (Eterna round: R96, puzzle: Same State 1)	224	–	–	–	–	–
GUUAAACAUGAGGAUCACCCAUGUCAAUGUAGUCGAGGAUAUGGGCAGCUAUGAGGCGUACUAGAAGGCGAAGAGU [Mat - Same State 1 - Mod of JL - D12] (puzzle: Same State 1)	–	106	196	280	–	–
GUUACAUGAGGAUCACCCAUGUAUGUGUGGGAGUAAGUGUCUUAGGAUAUCUAUGAUUUAAUUAAAGAGAAGGAAGAUUGUUGU [JMF's solution 83] (Eterna round: R96, puzzle: Same State NG 3)	85	–	–	–	154	103
GUUACAUGAGGAUCACCCAUGUAUGUGUGGGAGUAAGUGUCUUAGGAUAUCUAUGGUUUAAUUUAAGAGAAGGAAGAUUGUUGU [JMF's solution 72] (Eterna round: R96, puzzle: Same State NG 3)	73.9	–	–	–	111	96.6
GUUACAUGAGGAUCACCCAUGUAUGUGUGGGAGUAAGUGUCUUAGGAUAUCUAUUAUUAAAAUUAAGAGAAGGAAGAUUGUUGU [JMF's solution 18] (Eterna round: R96, puzzle: Same State NG 3)	98.1	–	–	–	115	103
GUUACAUGAGGAUCACCCAUGUAUGUGUGGGAGUAAGUGUCUUAGGAUAUCUGUUAUUUAGUUUAAGAGAAGGAAGAUUGUUGU [JMF's solution 41] (Eterna round: R96, puzzle: Same State NG 3)	80.9	–	–	–	124	97.4
GUUACAUGAGGAUCACCCAUGUGUGUGUGGGAGUGAGUGGCUUAGGAUAUCUAUGAUUUUAGUUAAGAGAAGGAGGAUUGCUGU [SS-NG3-LRO07] (Eterna round: R96, puzzle: Same State NG 3)	267	–	–	–	275	414
GUUAGGAAUCUAGCUGACAUGAGGAUCACCCAUGUUAGUGGGAAGGAUAUGGUACAGAAACUGUACCAGAAGGUCUUACUGUCU [MOD Omei's SS(NG) 3 AV9] (Eterna round: R96, puzzle: Same State NG 3)	21.4	–	–	–	23.8	25.9
GUUAUACAUGAGGAUCACCCAUGUCAAUGUAGUCGAGGAUAUGGGCAGCUAUGUAGCGUACUAGAAGGCGAAGAGU [JL-ss1-3.13 ViennaUCT mod] (puzzle: Same State 1)	–	68.4	43.1	103	–	–
GUUCGGAAUCGAGCUGACAUGAGGAUCACCCAUGUUAGUGGGAAGGAUAUGGUACAGAAACUGUACCAGAAGGUCCUGCUGUCU [MOD2 Omei's SS(NG) 3 AV9] (Eterna round: R96, puzzle: Same State NG 3)	57.2	–	–	–	38.2	59.5
UACAAUCUAUCUGAGGAUAUCAUGAUCAUAACAUGAGGAUCACCCAUGUGCAGGAAAACUGCAUAUGAGAAGGCAGAUAGAUUGU [salish99_ss2_r3_073] (puzzle: Same State 2)	–	214	154	863	–	–
UAGAGAGGAAGCGAGGAUAUCGUGUGAGGUACAUGAGGAUCACCCAUGUUUUAUGUUGAGAGAGGCGAGAAGGCGCAGGAGAAAA [JR_SS2_Sub087] (puzzle: Same State 2)	–	20	37.3	26.2	–	–
UAGAGAGGAAGCGAGGAUAUCGUGUUAGGUACAUGAGGAUCACCCAUGUUGUAGGUAGAGGUAGGCGAGAAGGCGCAGGAGAGGA [JR_SS2_Sub092] (puzzle: Same State 2)	–	35.6	37.6	66.2	–	–

Sequence	apparent KD of MS2 coat protein [1] [nM]	apparent KD of MS2 coat protein [2] [nM]	apparent KD of MS2 coat protein [3] [nM]	apparent KD of MS2 coat protein [4] [nM]	apparent KD of MS2 coat protein (input ligand: FMN 200 uM) [nM]	apparent KD of MS2 coat protein (input ligand: none) [nM]
UAGGGACAUGAGGAUCACCCAUGUGCCUCAUAUGGAGAAACACAGGAUAUGCUGAGGGAAACAUGGCAGAAGGGUGAAGAGAGG [Default title] (Eterna round: R96, puzzle: Same State NG 3)	27.3	–	–	–	31.9	50.9
UAGUGAUUGCAAGGAUAUGCUAGUUUUUAUUUGUGUUUGAUAACAAACAUGAGGAUCACCCAUGUGCAGAAGGUGCUAGAUAUG [JR_SSNG2_Sub079] (Eterna round: R96, puzzle: Same State NG 2)	348	–	–	–	–	–
UAGUUACUAUCUCAGGAUAUCAUGUCAAAGACAUGAGGAUCACCCAUGUACCAGGAAACUGGUUAUGAGAAGGGAGAUAGUAACA [Mat - Same State 2 - Mod - D56] (puzzle: Same State 2)	–	78.7	34.2	38.6	–	–
UAUCCAUAGAUAGGAUAUCAGUAUACAUGAGGAUCACCCAUGUUAUACUUGGUUUUAAGUUAGUCUGAGAAGGAUCUUGAUGAA [SameState NG2 #4] (Eterna round: R96, puzzle: Same State NG 2)	11	–	–	–	12.6	12.9
UAUCGUUUGAUAGGAUAUCGCUAUACAUGAGGAUCACCCAUGUUUACCACGCUGGUUUUUCAUACCGAGAAGGAUUCUGAUGAC [salish99_SSNG02_r04_006] (Eterna round: R96, puzzle: Same State NG 2)	31.5	–	–	–	38.3	27.7
UAUUAAUCUGUAGGAUAUCUAGGAUAUGGACGAGGAUCACCCGAGCAGCAUCAGCGCACCAGAGGAGAGAAGGACGCUUUGGUG [pwkr ssNG2 2F5 2FMN.2] (Eterna round: R96, puzzle: Same State NG 2)	208	–	–	–	325	367
UAUUUAAUCGUAGGAUAUAGAAUGAAAUUUGUACUAGAAGGACGUUACAUGAGGAUCACCCAUGUGGUAAGUGGGACAUAGUUU [JR_SSNG1_Sub036] (Eterna round: R96, puzzle: Same State NG 1)	84.5	–	–	–	141	82.2
UCGAGCGUACUUGCAGACAUGAGGAUCACCCAUGUAAAUGGGAAGGAUAUGGUACCGUUUCGGUACCAGAAGGUCCUGGGUGCU [salish99_SSNG3_r04_307] (Eterna round: R96, puzzle: Same State NG 3)	1090	–	–	–	329	984
UCUGAUGCCGUAGGAUAUCUAGGAUAUGGACGAGGAUCACCCGAGCAGCAUCAGCGCACCAGAGGAGAGAAGGACGCUUUGGAA [pwkr ssNG2 2F5 2FMN.21] (Eterna round: R96, puzzle: Same State NG 2)	274	–	–	–	438	1190
UCUUGGUUUUUGCUCGUUUUUUGUGUUGAACAUGAGGAUCACCCAUGUAUUGUACAAUCCAGUUUAAUAAUGGUCCA [Mod of one of JR's submissions 2] (puzzle: Sensor for hsa-mir-208a)	–	55	51	61.7	–	–
UCUUGGUUUUUGCUCGUUUUUUGUGUUGAACAUGAGGAUCACCCAUGUAUUGUACAAUCCGAUUUAAUAAUGGUCCG [JMF 50] (puzzle: Sensor for hsa-mir-208a)	–	42.5	48.4	46.4	–	–
UCUUGGUUUUUGCUCGUUUUUUGUGUUGAACAUGAGGAUCACCCAUGUAUUGUACAAUCCGGUUUAAUAAUGGUCCG [JMF 51] (puzzle: Sensor for hsa-mir-208a)	–	35.2	26.7	36.3	–	–
UCUUGGUUUUUGCUCGUUUUUUGUGUUGAACAUGAGGAUCACCCAUGUAUUGUACAGUCCAGUUUGAUAAUGGUCCG [JMF 56] (puzzle: Sensor for hsa-mir-208a)	–	39	33.3	44.3	–	–
UCUUGGUUUUUGCUCGUUUUUUGUGUUGAACAUGAGGAUCACCCAUGUAUUGUACGGUCCGAUUUGAUAGUGGUCCG [JMF 20] (puzzle: Sensor for hsa-mir-208a)	–	26.1	15.7	27	–	–
UGAACCUUCACAGGAUAUCAUGCGAAAAUUGCGUGAGAAGGGUGAAUACGGUGUUCAUAGUUGCACAUGAGGAUCACCCAUGUA [SameState NG1 #54] (Eterna round: R96, puzzle: Same State NG 1)	69.2	–	–	–	141	316
